Data: patent publication US20170137467A1 (CHROMOTEK, published 2017)
Changes are numbered by the printed parent chain.

T1: BC2T A6W (human)
T1 construct: position 6 library (BC2TA6X), row W
T1 peptide: Ac-PDRKAWVSHWQQ-NH2

T2: BC2T A6Y (human)
T2 construct: position 6 library (BC2TA6X), row Y
T2 peptide: Ac-PDRKAYVSHWQQ-NH2

T3: BC2T A6H (human)
T3 construct: position 6 library (BC2TA6X), row H
T3 peptide: Ac-PDRKAHVSHWQQ-NH2

T4: BC2T V7T (human)
T4 construct: position 7 library, row T
T4 peptide: Ac-PDRKAATSHWQQ-NH2

T5: BC2T V7K (human)
T5 construct: position 7 library, row K
T5 peptide: Ac-PDRKAAKSHWQQ-NH2

T6: BC2T V7R (human)
T6 construct: position 7 library, row R
T6 peptide: Ac-PDRKAARSHWQQ-NH2

T7: BC2T P1N (human)
T7 construct: position 1 library, row N
T7 peptide: Ac-NDRKAAVSHWQQ-NH2

T8: BC2T P1Q (human)
T8 construct: position 1 library, row Q
T8 peptide: Ac-QDRKAAVSHWQQ-NH2

T9: BC2T P1K (human)
T9 construct: position 1 library, row K
T9 peptide: Ac-KDRKAAVSHWQQ-NH2

T10: BC2T D2F (human)
T10 construct: position 2 library, row F
T10 peptide: Ac-PFRKAAVSHWQQ-NH2

T11: BC2T D2T (human)
T11 construct: position 2 library, row T
T11 peptide: Ac-PTRKAAVSHWQQ-NH2

T12: BC2T D2Y (human)
T12 construct: position 2 library, row Y
T12 peptide: Ac-PYRKAAVSHWQQ-NH2

T13: BC2T D2E (human)
T13 construct: position 2 library, row E
T13 peptide: Ac-PERKAAVSHWQQ-NH2

T14: BC2T R3Y (human)
T14 construct: position 3 library (BC2TR3X), row Y
T14 peptide: Ac-PDYKAAVSHWQQ-NH2

T15: BC2T R3D (human)
T15 construct: position 3 library (BC2TR3X), row D
T15 peptide: Ac-PDDKAAVSHWQQ-NH2

T16: BC2T R3E (human)
T16 construct: position 3 library (BC2TR3X), row E
T16 peptide: Ac-PDEKAAVSHWQQ-NH2

T17: BC2T K4F (human)
T17 construct: position 4 library, row F
T17 peptide: Ac-PDRFAAVSHWQQ-NH2

T18: BC2T K4S (human)
T18 construct: position 4 library, row S
T18 peptide: Ac-PDRSAAVSHWQQ-NH2

T19: BC2T K4R (human)
T19 construct: position 4 library, row R
T19 peptide: Ac-PDRRAAVSHWQQ-NH2

T20: BC2T K4D (human)
T20 construct: position 4 library, row D
T20 peptide: Ac-PDRDAAVSHWQQ-NH2

T21: BC2T A5P (human)
T21 construct: position 5 library, row P
T21 peptide: Ac-PDRKPAVSHWQQ-NH2

T22: BC2T A5R (human)
T22 construct: position 5 library, row R
T22 peptide: Ac-PDRKRAVSHWQQ-NH2

B1: BC2 nanobody (BC2-Nb) (VHH)
VHH: QVQLVESGGGLVQPGGSLTLSCTASGFTLDHYDIGWFRQAPGKEREGVSCINNSDDDTYYADSVKGRFTIFMDNAKDTVYLQMNSLKPEDTAIYYCAEARGCKRGRYEYDFWGQGTQVTVSS
notes: immobilised on agarose/sepharose beads in this assay; also called BC2 nanotrap (immobilised form); not shown: C-terminal 6xHis-tag added by pHEN6 vector
B2: BC2-NbR106S (VHH)
VHH: B1 VHH with R106S
notes: immobilised on beads in this assay; not shown: C-terminal 6xHis-tag added by pHEN6 vector

How the values were obtained:
Assay in all cases: library pulldown, LC-MS of supernatant; ratio vs GFP-Nb control (0=captured, 1=not captured)
BC2T A6W = target: T1, BC2T A6W
Outline: (§1)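 Unbound peptide left in supernatant after 1 h pulldown in PBS/0.01% CHAPS measured by reversed-phase LC-MS (8–30% eluent B gradient, 20 min).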

BC2T A6Y = target: T2, BC2T A6Y
Outline: as §1

BC2T A6H = target: T3, BC2T A6H
Outline: as §1

BC2T V7T = target: T4, BC2T V7T
Outline: as §1

BC2T V7K = target: T5, BC2T V7K
Outline: as §1

BC2T V7R = target: T6, BC2T V7R
Outline: as §1

BC2T P1N = target: T7, BC2T P1N
Outline: as §1

BC2T P1Q = target: T8, BC2T P1Q
Outline: as §1

BC2T P1K = target: T9, BC2T P1K
Outline: as §1

BC2T D2F = target: T10, BC2T D2F
Outline: as §1

BC2T D2T = target: T11, BC2T D2T
Outline: as §1

BC2T D2Y = target: T12, BC2T D2Y
Outline: as §1

BC2T D2E = target: T13, BC2T D2E
Outline: as §1

BC2T R3Y = target: T14, BC2T R3Y
Outline: as §1

BC2T R3D = target: T15, BC2T R3D
Outline: as §1

BC2T R3E = target: T16, BC2T R3E
Outline: as §1

BC2T K4F = target: T17, BC2T K4F
Outline: as §1

BC2T K4S = target: T18, BC2T K4S
Outline: as §1

BC2T K4R = target: T19, BC2T K4R
Outline: as §1

BC2T K4D = target: T20, BC2T K4D
Outline: as §1

BC2T A5P = target: T21, BC2T A5P
Outline: as §1

BC2T A5R = target: T22, BC2T A5R
Outline: as §1

Row | Binder | ratio (BC2T A6W) | ratio (BC2T A6Y) | ratio (BC2T A6H) | ratio (BC2T V7T) | ratio (BC2T V7K) | ratio (BC2T V7R) | ratio (BC2T P1N) | ratio (BC2T P1Q) | ratio (BC2T P1K) | ratio (BC2T D2F) | ratio (BC2T D2T) | ratio (BC2T D2Y) | ratio (BC2T D2E) | ratio (BC2T R3Y) | ratio (BC2T R3D) | ratio (BC2T R3E) | ratio (BC2T K4F) | ratio (BC2T K4S) | ratio (BC2T K4R) | ratio (BC2T K4D) | also measured
1 | B1 | 1.1 | 1 | 1.1 | 0.2 | 0.3 | 0.2 | 0.6 | 0.6 | 0.3 | 0.2 | 0.1 | 0.1 | 0.2 | 0.7 | 1 | 1 | 0.3 | 0.3 | 0.1 | 1 | ratio (BC2T A5P): 0.1; ratio (BC2T A5R): 0.2
2 | B2 | 1 | 0.9 | 0.9 | 0.3 | 0.3 | 0.2 | 0.7 | 0.7 | 0.5 | 0.3 | 0.2 | 0.2 | 0.4 | 1 | 1 | 1 | 0.7 | 0.7 | 0.1 | 1 | ratio (BC2T A5P): 0.4; ratio (BC2T A5R): 0.1
